Columns and labels:
[1] = target: Human serum albumin (HSA) (Homo sapiens, UniProt P02768 P02768:25-609); experiment: surface acoustic wave sensor; 5'-thiol aptamer; conditions: label: 5'-biotin, 5'-amino or 5'-thiol
Procedure: (§1) (11) A hemoglobin sample having been diluted into 11.6 μM with HBS-P(+MgCl2) was introduced through the passage 15 to the sensing element 3. Then, the amount of phase change occurring after 5 minutes of reaction was measured. Similarly, measurement was performed with employing human serum albumin (HSA) as a sample. Further, as for the hemoglobin sample, measurement was performed on samples of various concentrations.

[2] = target: Hemoglobin (Hb), full length (Homo sapiens, UniProt P69905;P68871 P69905:2-142,P68871:2-147); experiment: surface acoustic wave sensor phase change; 11.6 uM Hb; signal rises with Hb concentration; HBS-P + MgCl2; conditions: tags: Abcam ab77858; chain copies: 2,2; label: 5'-biotin, 5'-amino or 5'-thiol
Sequence of Hemoglobin (Hb), full length (P69905 2-142, chain 1 of 2): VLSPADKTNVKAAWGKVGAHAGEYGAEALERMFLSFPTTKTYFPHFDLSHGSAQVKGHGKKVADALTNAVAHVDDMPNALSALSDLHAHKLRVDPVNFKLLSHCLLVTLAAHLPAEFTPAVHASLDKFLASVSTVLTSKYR
Sequence of Hemoglobin (Hb), full length (P68871 2-147, chain 2 of 2): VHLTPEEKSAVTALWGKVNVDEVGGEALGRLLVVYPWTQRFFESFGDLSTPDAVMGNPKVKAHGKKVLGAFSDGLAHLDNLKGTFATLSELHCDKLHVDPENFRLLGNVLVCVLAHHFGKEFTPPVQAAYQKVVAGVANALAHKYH
Procedure: as §1

Sequence of Human serum albumin (HSA) (P02768 25-609, one chain of several): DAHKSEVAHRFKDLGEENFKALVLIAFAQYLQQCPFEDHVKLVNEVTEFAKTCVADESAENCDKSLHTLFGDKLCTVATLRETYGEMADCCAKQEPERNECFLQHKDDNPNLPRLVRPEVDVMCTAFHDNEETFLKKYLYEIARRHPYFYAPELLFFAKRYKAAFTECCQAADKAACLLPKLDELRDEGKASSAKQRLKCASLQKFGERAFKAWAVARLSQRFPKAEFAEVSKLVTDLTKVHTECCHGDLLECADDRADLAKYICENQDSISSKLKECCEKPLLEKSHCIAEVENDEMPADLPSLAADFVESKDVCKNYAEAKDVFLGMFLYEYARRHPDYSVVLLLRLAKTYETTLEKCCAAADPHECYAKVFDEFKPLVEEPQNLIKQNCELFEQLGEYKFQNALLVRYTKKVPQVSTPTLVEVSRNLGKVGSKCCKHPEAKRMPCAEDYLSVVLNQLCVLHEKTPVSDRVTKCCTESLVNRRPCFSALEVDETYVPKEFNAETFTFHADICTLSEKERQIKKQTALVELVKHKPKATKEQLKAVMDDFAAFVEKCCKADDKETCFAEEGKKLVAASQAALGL

CGUAUUACGGCAUUAUUAGGACCAAUGCUGAGUACG (ssRNA) [6R_28 partial (36-mer)]
binding result [1]: no binding | binding result [2]: binds
